Measured values taken from US12528864 (GlaxoSmithKline, dated 2026).

Columns and labels:
[1] = target: T1, cynomolgus monkey CD96, native, on primary cynomolgus monkey T cells (cynomolgus monkey, UniProt A0A2K5TWV6 22-569); experiment: flow cytometry on activated cynomolgus monkey T cells, pooled donor
T1 construct: whole, on cells
T1 sequence: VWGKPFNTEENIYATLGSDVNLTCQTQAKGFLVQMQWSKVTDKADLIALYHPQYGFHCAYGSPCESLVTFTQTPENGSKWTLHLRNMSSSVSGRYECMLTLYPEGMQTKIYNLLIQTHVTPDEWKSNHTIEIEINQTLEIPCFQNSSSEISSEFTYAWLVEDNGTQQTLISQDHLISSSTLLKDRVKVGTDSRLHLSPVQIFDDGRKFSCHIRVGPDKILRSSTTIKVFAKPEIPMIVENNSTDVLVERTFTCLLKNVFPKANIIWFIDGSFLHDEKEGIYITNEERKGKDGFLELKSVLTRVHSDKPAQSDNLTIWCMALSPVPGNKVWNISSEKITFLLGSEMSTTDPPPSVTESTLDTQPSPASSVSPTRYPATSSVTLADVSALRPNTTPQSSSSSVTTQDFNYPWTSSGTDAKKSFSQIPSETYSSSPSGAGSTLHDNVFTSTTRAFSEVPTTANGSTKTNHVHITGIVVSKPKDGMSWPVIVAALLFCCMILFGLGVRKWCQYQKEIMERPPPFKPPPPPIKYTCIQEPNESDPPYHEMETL

[2] = target: T2, recombinant murine CD96v2 (mouse, UniProt Q3U0X8 22-536, limits assumed); experiment: MSD-SET solution equilibrium titration, antibody titrated against constant CD96, free antigen detected
T2 construct: Soluble recombinant protein used in MSD-SET; also called mouse CD96
T2 sequence (looked up): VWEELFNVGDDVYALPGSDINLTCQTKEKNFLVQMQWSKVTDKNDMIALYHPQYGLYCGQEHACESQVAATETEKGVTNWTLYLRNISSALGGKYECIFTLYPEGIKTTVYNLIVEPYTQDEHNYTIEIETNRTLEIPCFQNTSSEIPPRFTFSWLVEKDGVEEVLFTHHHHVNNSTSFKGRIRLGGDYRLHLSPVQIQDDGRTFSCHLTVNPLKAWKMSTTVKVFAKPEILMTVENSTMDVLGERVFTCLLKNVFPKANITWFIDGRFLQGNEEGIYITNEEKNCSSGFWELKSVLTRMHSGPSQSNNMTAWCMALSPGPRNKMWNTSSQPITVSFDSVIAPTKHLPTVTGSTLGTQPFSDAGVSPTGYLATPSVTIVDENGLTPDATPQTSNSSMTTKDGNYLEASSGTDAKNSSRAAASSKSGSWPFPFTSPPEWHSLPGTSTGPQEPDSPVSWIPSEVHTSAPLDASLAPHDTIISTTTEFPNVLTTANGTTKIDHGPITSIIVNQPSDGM

EC50 (read off the curve) [1]: ~0.05 nM
IC50 (read off the curve) [2]: ~0.5 nM
B1: 42Y073-86F08-66 (antibody)
heavy: not shown
light: DIQLTQSPSSLSASVGDRVTITCRASQSISSYLNWYQQKPGKAPKLLIYAASSLQSGVPSRFSGSGSGTDFTLTISSLQPEDFATYYCQQVLHTITFGGGTKVEIKRTVAAPSVFIFPPSDEQLKSGTASVVCLLNNFYPREAKVQWKVDNALQSGNSQESVTEQDSKDSTYSLSSTLTLSKADYEKHKVYACEVTHQGLSSPVTKSFNRGEC
notes: also called GSK 6097608; GSK6097608
